Source: patent publication US20250026850A1 (TRISHULA THERAPEUTICS, published 2025)
Substitutions are numbered along the chain they refer to.

T1: rhCD39-ECD-His (R&D Systems) (human, UniProt P49961 38-478)
T1 construct: Bought protein; that entry runs on through the C-terminal transmembrane and cytoplasmic residues; also called recombinant human CD39 extracellular domain; soluble recombinant human CD39 (ENTDP1) ECD; not shown: His tag
T1 sequence: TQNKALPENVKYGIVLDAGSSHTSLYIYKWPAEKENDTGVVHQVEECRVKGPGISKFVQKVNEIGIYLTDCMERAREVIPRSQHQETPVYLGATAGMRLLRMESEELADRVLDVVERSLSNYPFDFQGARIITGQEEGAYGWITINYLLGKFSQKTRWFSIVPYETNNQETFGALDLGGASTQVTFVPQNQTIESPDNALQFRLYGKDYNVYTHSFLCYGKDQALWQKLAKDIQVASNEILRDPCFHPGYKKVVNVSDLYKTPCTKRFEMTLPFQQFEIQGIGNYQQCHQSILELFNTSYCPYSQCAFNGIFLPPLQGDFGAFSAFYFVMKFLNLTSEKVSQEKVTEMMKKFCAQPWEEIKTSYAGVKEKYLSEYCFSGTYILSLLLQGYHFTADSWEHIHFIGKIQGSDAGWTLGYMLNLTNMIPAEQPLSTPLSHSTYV

T2: cynomolgus macaque (Macaca fascicularis) CD39 on cells (cynomolgus macaque (Macaca fascicularis), UniProt P49961 7-510 (human entry))
T2 construct: CHO cells engineered to express cyno CD39, or primary cyno B cells and monocytes; also called cyno CD39; cCD39
T2 chain: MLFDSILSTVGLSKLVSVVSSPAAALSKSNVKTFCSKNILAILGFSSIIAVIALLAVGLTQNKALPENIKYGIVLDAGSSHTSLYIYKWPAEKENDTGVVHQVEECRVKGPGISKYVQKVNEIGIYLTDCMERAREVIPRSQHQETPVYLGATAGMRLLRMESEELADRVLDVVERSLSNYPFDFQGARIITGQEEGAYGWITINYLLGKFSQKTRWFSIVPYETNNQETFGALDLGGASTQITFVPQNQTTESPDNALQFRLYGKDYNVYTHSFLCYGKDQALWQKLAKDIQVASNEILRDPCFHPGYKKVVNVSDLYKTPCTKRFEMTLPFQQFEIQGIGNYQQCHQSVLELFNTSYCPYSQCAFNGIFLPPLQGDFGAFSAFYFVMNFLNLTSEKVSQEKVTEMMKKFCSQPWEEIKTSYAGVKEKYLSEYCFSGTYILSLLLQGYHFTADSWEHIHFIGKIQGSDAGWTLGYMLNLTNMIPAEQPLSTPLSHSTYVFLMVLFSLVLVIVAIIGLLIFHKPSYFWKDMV

T3: human CD39 on cells (human, UniProt P49961 1-510)
T3 construct: One molecule for all cells that carry human CD39; the cell is named under assay; also called hCD39; cellular CD39
T3 sequence: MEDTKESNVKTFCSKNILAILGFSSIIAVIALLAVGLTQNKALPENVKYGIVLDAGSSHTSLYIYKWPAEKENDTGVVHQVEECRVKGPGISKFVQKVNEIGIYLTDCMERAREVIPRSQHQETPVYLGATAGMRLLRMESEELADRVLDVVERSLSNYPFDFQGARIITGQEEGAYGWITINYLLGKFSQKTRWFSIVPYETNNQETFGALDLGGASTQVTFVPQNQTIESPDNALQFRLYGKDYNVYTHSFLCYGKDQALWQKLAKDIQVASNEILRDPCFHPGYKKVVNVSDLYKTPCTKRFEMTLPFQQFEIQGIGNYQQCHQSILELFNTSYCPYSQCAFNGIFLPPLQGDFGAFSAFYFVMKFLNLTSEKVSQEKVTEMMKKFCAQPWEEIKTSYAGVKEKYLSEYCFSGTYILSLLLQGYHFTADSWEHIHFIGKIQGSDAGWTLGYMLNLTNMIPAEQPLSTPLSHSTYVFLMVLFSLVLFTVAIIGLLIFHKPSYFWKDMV

B1: 29852 (antibody, V domains shown)
VH: QVQLVQSGAEVKKPGSSVKVSCKASGGTFSAMAISWVRQAPGQGLEWMGGILPIAGTANYAQKFQGRVTITADESTSTAYMELSSLRSEDTAVYYCARGGAKYASTYGMDVWGQGTTVTVSS
VL: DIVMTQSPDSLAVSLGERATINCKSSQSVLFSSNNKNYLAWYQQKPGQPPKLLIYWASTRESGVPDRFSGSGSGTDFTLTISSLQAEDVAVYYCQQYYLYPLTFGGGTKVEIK
B2: 29857 (antibody, V domains shown)
VH: B1 VH with A31W, M32L, L52I, I54R, A55G
VL: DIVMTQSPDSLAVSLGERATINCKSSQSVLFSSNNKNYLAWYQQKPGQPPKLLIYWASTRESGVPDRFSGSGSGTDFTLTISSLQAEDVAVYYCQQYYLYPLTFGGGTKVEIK
B3: 31432 (antibody, V domains shown)
VH: B1 VH with A31H, M32T, A55G, T106Q, Y107L
VL: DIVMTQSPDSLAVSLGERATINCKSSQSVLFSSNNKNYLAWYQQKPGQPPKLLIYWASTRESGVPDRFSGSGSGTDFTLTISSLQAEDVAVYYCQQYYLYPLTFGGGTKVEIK
B4: 28347 (antibody, V domains shown)
VH: B1 VH with A31S, M32L, L52I, A55F, S77N
VL: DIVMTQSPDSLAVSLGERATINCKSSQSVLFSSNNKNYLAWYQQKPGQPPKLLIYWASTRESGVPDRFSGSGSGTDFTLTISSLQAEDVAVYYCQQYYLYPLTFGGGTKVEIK
B5: 31436 (antibody, V domains shown)
VH: B1 VH with A31L, M32L, S105V, T106G
VL: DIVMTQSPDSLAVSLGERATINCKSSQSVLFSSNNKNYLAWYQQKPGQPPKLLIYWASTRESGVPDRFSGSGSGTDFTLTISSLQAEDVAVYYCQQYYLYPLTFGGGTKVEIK
B6: 29851 (antibody, V domains shown)
VH: B1 VH with S30A, A31S, M32L, A55F, T57E
VL: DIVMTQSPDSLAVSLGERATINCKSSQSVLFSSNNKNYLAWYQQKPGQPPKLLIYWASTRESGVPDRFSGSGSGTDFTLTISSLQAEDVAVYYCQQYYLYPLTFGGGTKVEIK
B7: 31393 (antibody, V domains shown)
VH: QVQLVQSGAEVKKPGSSVKVSCKASGGTFESYGISWVRQAPGQGLEWMGSIIPEFGIANYAQKFQGRVTITADESTSTTYMELSSLRSEDTAVYYCARESGGYRDHRLDVWGQGTMVTVSS
VL: EIVMTQSPATLSVSPGERATLSCRASQSVGSNLAWYQQKPGQAPRLLIYGASTRATGIPARFSGSGSGTEFTLTISSLQSEDFAVYYCQQYLLWPLTFGGGTKVEIKR
B8: 31861 (antibody, V domains shown)
VH: B7 VH with E30G, T79A, G102T
VL: B7 VL
B9: 31873 (antibody, V domains shown)
VH: B7 VH with E30S, S31K, T79A, D109G
VL: B7 VL with T56S

Each binder was assayed against T1, rhCD39-ECD-His (R&D Systems) (assay: BLI (Octet), IgG on anti-human Fc sensor, rhCD39-ECD-His 10-300 nM, 1:1 fit).
Method: The kinetic data was globally fit with a simple 1:1 Langmuir binding model to yield on-rate (kon) and off-rate (koff) values. The equilibrium dissociation constants (KD) were calculated from the kon and koff values.
Binding kinetics were measured using the Octet Red96 system (ForteBio) at 25° C. in running buffer (1× Pall ForteBio Kinetics Buffer diluted into PBS or Tris pH 7.4). […] After a short baseline step in running buffer, the sensors were exposed to varying concentrations (10-300 nM) of rhCD39-ECD-His (R&D Systems) for the association step. Dissociation of the complex was monitored upon exposure of the sensors to running buffer once again. Data was processed using ForteBio Octet software with baseline subtraction, global fit and 1:1 binding model to obtain association and dissociation rates. KD was calculated from the ratio of kd to kₐ.
B1 showed a Kd of 0.266 nM, a koff of 0.000134 s⁻¹ and a kon of 503000 M⁻¹ s⁻¹.
With B2 the Kd was 0.76 nM, the koff was 0.000229 s⁻¹ and the kon was 302000 M⁻¹ s⁻¹.
In the case of B3, the Kd is reported as 1.07 nM, the koff is reported as 0.000286 s⁻¹ and the kon is reported as 268000 M⁻¹ s⁻¹.
Work on B4 yielded a Kd of 9.05 nM, a koff of 0.00815 s⁻¹ and a kon of 901000 M⁻¹ s⁻¹.
With B5 the Kd was 0.924 nM, the koff was 0.000243 s⁻¹ and the kon was 263000 M⁻¹ s⁻¹.
For B6, the Kd was 1.23 nM, the koff was 0.000385 s⁻¹ and the kon was 313000 M⁻¹ s⁻¹.
Binder B7 has a Kd of 0.672 nM, a koff of 0.0002 s⁻¹ and a kon of 298000 M⁻¹ s⁻¹.
B8 gave a Kd of 1.16 nM, a koff of 0.000286 s⁻¹ and a kon of 246000 M⁻¹ s⁻¹.
With B9 the Kd was 0.922 nM, the koff was 0.000286 s⁻¹ and the kon was 311000 M⁻¹ s⁻¹.

Biological target: T2, cynomolgus macaque (Macaca …)
Assay: flow cytometry, 100 nM IgG, cCD39-CHO cells; MFI ratio to parental CHO
Method: (§1) 100 nanomolar IgGs (each antibody is indicated as a unique clone number in the FIG.) were incubated at […] 30 minutes on ice in phosphate buffered saline (PBS) with parental CHO cells or CHO cells engineered to express either human or cynomolgus macaque (Macaca fascicularis) CD39 (CHO CD39 cells). Cells were then washed with ice cold PBS and incubated with a fluorescently labeled goat-anti-human IgG for 20 minutes on ice. Cells were washed and resuspended in ice cold PBS prior to analysis by flow cytrometry.
In the case of B1, the “Cell Binding (FOB)” value is reported as 1420 FOB.
In the case of B2, the “Cell Binding (FOB)” value is reported as 1140 FOB.
For B3, the “Cell Binding (FOB)” value was 5700 FOB.
With B4 the “Cell Binding (FOB)” value was 1340 FOB.
With B5 the “Cell Binding (FOB)” value was 3570 FOB.
With B6 the “Cell Binding (FOB)” value was 398 FOB.
With B7 the “Cell Binding (FOB)” value was 2960 FOB.
For B8, the “Cell Binding (FOB)” value was 5480 FOB.
B9 was tested, and the “Cell Binding (FOB)” value was 5080 FOB.

What follows are binders tested against T3, human CD39 on cells (assay: flow cytometry, 100 nM IgG, hCD39-CHO cells; MFI ratio to parental CHO).
Method: as §1
In the case of B1, the “Cell Binding (FOB)” value is reported as 337 FOB.
For B2, the “Cell Binding (FOB)” value was 224 FOB.
In the case of B3, the “Cell Binding (FOB)” value is reported as 1170 FOB.
In the case of B4, the “Cell Binding (FOB)” value is reported as 1020 FOB.
B5 was tested, and the “Cell Binding (FOB)” value was 1320 FOB.
In the case of B6, the “Cell Binding (FOB)” value is reported as 129 FOB.
With B7 the “Cell Binding (FOB)” value was 1060 FOB.
For B8, the “Cell Binding (FOB)” value was 1430 FOB.
For B9, the “Cell Binding (FOB)” value was 1320 FOB.
